Experimental data taken from patent US10005846 (LIFEARC, dated 2018).

T1: human transglutaminase type 2 (TG2) (human, UniProt P21980 1-687)
T1 sequence: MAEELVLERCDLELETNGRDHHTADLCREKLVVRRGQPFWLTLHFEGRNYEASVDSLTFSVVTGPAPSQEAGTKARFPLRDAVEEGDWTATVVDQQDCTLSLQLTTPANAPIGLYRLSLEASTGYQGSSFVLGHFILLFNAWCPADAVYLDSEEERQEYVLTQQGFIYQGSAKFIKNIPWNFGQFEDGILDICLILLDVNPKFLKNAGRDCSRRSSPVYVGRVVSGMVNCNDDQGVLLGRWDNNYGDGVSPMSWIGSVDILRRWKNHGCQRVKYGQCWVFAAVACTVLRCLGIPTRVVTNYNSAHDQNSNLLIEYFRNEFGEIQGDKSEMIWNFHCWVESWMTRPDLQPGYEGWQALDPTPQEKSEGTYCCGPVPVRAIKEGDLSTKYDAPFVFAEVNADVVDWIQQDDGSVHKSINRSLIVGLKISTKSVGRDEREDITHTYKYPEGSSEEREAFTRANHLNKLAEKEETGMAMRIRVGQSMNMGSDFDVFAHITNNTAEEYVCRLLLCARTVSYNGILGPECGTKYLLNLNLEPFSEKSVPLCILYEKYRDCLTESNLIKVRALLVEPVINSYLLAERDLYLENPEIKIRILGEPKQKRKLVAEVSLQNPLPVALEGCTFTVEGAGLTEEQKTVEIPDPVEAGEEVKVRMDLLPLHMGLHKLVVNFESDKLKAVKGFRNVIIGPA

T2: TG7 (human, UniProt Q96PF1)
T2 construct: recombinant, Zedira; also called recombinant human TG7
T2 sequence (enzyme, looked up): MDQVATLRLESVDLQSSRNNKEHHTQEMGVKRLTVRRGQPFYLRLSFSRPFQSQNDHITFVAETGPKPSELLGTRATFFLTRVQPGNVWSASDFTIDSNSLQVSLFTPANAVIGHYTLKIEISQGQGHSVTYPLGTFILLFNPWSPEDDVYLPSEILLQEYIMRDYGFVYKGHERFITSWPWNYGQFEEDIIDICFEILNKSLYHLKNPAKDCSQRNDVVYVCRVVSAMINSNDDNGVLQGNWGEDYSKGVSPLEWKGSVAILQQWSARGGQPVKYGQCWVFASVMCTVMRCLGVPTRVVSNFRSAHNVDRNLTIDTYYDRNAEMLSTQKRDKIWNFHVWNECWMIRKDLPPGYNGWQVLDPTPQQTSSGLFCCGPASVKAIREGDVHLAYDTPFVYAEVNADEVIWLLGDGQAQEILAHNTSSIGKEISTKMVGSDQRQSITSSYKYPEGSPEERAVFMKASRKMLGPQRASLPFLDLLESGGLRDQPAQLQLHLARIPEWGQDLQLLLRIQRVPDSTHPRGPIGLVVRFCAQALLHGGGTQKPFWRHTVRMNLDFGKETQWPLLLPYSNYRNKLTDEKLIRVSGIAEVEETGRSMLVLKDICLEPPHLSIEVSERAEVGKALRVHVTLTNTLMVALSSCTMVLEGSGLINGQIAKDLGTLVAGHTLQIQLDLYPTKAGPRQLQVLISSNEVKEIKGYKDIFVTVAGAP

T3: mouse TG2 (mouse, UniProt P21981 1-686, limits assumed)
T3 sequence: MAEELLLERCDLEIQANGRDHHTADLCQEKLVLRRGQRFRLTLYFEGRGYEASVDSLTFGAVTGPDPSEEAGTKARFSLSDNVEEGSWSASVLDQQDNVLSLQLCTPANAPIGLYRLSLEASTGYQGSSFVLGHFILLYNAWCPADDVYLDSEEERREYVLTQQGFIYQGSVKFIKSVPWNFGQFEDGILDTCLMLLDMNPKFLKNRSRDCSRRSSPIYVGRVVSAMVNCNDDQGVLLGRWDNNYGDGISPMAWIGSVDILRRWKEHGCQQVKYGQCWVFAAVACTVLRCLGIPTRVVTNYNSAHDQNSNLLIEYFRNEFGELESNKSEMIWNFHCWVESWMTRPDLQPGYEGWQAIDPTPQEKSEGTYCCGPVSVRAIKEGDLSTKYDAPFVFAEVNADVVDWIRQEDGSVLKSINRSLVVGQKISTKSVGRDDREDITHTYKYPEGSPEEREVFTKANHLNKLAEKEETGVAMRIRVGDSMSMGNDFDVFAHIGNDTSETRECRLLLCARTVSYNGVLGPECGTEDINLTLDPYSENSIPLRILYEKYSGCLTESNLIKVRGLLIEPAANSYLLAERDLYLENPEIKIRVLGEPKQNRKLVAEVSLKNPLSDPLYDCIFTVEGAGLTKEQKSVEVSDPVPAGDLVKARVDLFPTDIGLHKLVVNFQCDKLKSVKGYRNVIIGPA


Legend:
[1] = biological target: T1, human transglutaminase type 2 (TG2); experiment: cell-based or functional assay
TG7 = biological target: T2, TG7; experiment: ELISA, purified IgG at 0.1 ug/ml, plates coated with 100 ng of each TG [panel B]
Description: Conditioned medium or purified IgG were tested for reactivity to transglutaminase family members. The ability of each to bind to each transglutaminase (TG1, TG2, TG3, TG5, TG7 and Factor XIIIa; all Zedira) was determined using a plate binding assay. Microtiter plates (Costar, Cambridge, UK) were coated with recombinant TG (Zedira, Darmstadt, Germany) in 50 μl of 0.1 M bicarbonate/carbonate buffer (pH 9.6) overnight at 4° C. Plates were blocked for 2 h at 37° C. with 200 μl PBS containing 3% w/v BSA. Plates were washed three times with PBS containing 0.05% Tween 20 (washing buffer) and 100 μl of diluted conditioned medium (dilution 1:5 to 1:20) or purified anti-TG2 catalytic core mAbs was added. Plates were incubated for a further 1 h at room temperature. The washing step was repeated and anti-mouse gamma chain-horseradish peroxidase (1:5000) in PBS containing 0.05% Tween 20 (v:v) and 1% BSA (w:v) (Sigma, Poole UK) was added for 1 h. […] The reaction was stopped by adding 25 μl of 0.1 M H_2SO_4 and the absorbance at 450 nm was determined.

mouse TG2 = biological target: T3, mouse TG2; experiment: western blot and ELISA

Binder	IC50 of TG2 activity, 3H putrescine incorporation [1]	binding result (TG7)	binding result (mouse TG2)
AB1 murine monoclonal antibody (antibody, V domains shown, Mouse hybridoma IgG; heavy chain amplified with constant region primer MHCG1, kappa light chain; also called mAB003) VH: EVQLVESGGGLVKPGGSLKLSCAASGFTLSSSAMSWVRQTPDRRLEWVATISVGGGKTYYPDSVKGRFTISRDNAKNTLYLQMNSLRSEDTAMYYCAKLISLYWGQGTTLTVSS VL: DIKMTQSPSSMYASLGERVTITCKASQDINSYLTWFQQKPGKSPKTLIYRTNRLFDGVPSRFSGSGSGQDFFLTISSLEYEDMGIYYCLQYDDFPYTFGGGTKLEIK	1.09e-05 mg/ml IgG per ng TG2	no binding (tested: 0.1 ug/ml)	–
BB7 murine monoclonal antibody (antibody, V domains shown, Mouse hybridoma IgG; heavy chain amplified with primer MHCG1, kappa light chain; also called mBB001) VH: AVQLVESGGGLVKPGGSLKLSCAASGIIFSSSAMSWVRQTPEKRLEWVATISSGGRSTYYPDSVKGRFTVSRDSAKNTLYLQMDSLRSEDTAIYYCAKLISPYWGQGTTLTVSS VL: AIKMTQSPSSMYASLGERVIITCKASQDINSYLTWFQQKPGKSPKTLIYLTNRLMDGVPSRFSGSGSGQEFLLTISGLEHEDMGIYYCLQYVDFPYTFGGGTKLEIK	1.59e-05 mg/ml IgG per ng TG2	–	binds
DC1 murine monoclonal antibody (antibody, V domains shown, Mouse hybridoma IgG; heavy chain amplified with primer MHCG1, kappa light chain; also called mDC001) VH: EVQLVESGGGLVKPGGSLKLSCAASGFTLSTHAMSWVRQTPEKRLEWVATISSGGRSTYYPDSVKGRFTISRDNVKNTLYLQLSSLRSEDTAVYFCARLISTYWGQGTTLTVSS VL: DITMTQSPSSIYASLGERVTITCKASQDINSYLTWFQQKPGKSPKILIYLVNRLVDGVPSRFSGSGSGQDYALTISSLEYEDMGIYYCLQYDDFPYTFGGGTKLEIK	1.23e-05 mg/ml IgG per ng TG2	no binding (tested: 0.1 ug/ml)	binds
DH2 murine monoclonal antibody (antibody, V domains shown, Mouse hybridoma IgG; heavy chain amplified with primer MHCG2B, kappa light chain; also called mDH001) VH: not shown VL: QIVLTQSPAIMSASPGEKVTMTCSASSSVSYMYWYQQKPGSSPRLLIYDTSNLASGVPVRFSGSGSGTSYSLTISRMEAEDAATFYCQQWSSSPLTFGAGTKLELK	6.7e-05 mg/ml IgG per ng TG2	no binding (tested: 0.1 ug/ml)	binds
DD9 murine monoclonal antibody (antibody, V domains shown, Mouse hybridoma IgG; heavy chain amplified with primer MHCG2A, kappa light chain; also called mDD9001) VH: not shown VL: QIVLTQSPAIMSASPGEKVTMTCSASSSVDYMYWYQQKPGSSPRLLIYDTSNLASGVPVRFSGSGSGTSYSLTISRMGAEDAATYYCQQWNSSPLTFGAGTKLELK	5.24e-05 mg/ml IgG per ng TG2	no binding (tested: 0.1 ug/ml)	binds
AG9 murine monoclonal antibody (antibody, V domains shown, Mouse hybridoma IgG; heavy chain amplified with primer MHCG1, kappa light chain) VH: EVQLQQSGPELVKPGASVKMSCRASGYTFTTYVIHWVKQKPGQGLEWIGYINPYNDGARYNEKFKGKATLTSDKSSTTAYMELSSLTSEDSAVYYCARLSSDYWGQGTTLTVSS VL: DVLMTQNPLSLPVSLGDQASISCRSSRSIEHSNGNTYLEWYLQKPGQSPKFLIYKVSNRFSGVPDRFSGSGSGTDFTLRISSVEAEDLGVYYCFQGSHVPFTFGGGTKLEIK	4.87e-05 mg/ml IgG per ng TG2	no binding (tested: 0.1 ug/ml)	–
EH6 murine monoclonal antibody (antibody, V domains shown, Mouse hybridoma IgG; heavy chain amplified with primer MHCG2B, kappa light chain) VH: EVQLQQSGPELVKPGASVKMSCKASGYTFTSYVMHWVKQKPGQGLEWIGFINPYNDGTKYNEKFKGKATLTSDKASTTAYMELSSLTSEDSAVYYCARFSSGYWGQGTTLTVSS VL: DVLMTQTPLSLPVSLGDQASISCRSSQSIVHSNGNTYLEWYLQKPGQSPKLLIYKVSNRFSGVPDRFSGSGSGTDFTLKISRVGAEDLGVYYCLQVSHVPFTFGSGTKLEIK	6.9e-05 mg/ml IgG per ng TG2	no binding (tested: 0.1 ug/ml)	binds
AH3 murine monoclonal antibody (antibody, V domains shown, Mouse hybridoma IgG; heavy chain amplified with primer MHCG2B, kappa light chain) VH: EVQLQQSGPELVKPGASVKMSCRASGYTFTTYVIHWVKQKPGQGLEWIGYINPYNDGARYNEKFKGKATLTSDKSSTTAYMELSSLTSEDSAVYYCARLSSDYWGQGTTLTVSS VL: DVLMTQNPLSLPVSLGDQASISCRSSRSIEHSNGNTYLEWYLQKPGQSPKFLIYKVSNRFSGVPDRFSGSGSGTDFTLRISSVEAEDLGVYYCFQGSHVPFTFGGGTKLEIK	7.8e-05 mg/ml IgG per ng TG2	no binding (tested: 0.1 ug/ml)	–
JE12 murine monoclonal antibody (antibody, V domains shown, Mouse hybridoma IgG; heavy chain amplified with primer MHCG1, kappa light chain) VH: EVQLQQSGPELVKPGASVKMSCKASGYRFTSYVMHWVKQKSGQGLEWIGYINPYNDGAKYNEKFKGKATLTSDKSSSTAYMELSSLTSEDSAVYYCARLSSDYWGQGTTLTVSS VL: DVLMTQNPLSLPVSLGDQASISCRSSQSIEHINGNTYLEWYLQKPGQSPKFLIYKVSNRFSGVPDRFSGSGSGTDFTLRISRVEAEDLGIYYCFQGSHVPFTFGGGTKLEIK	–	no binding (tested: 0.1 ug/ml)	binds
